Experimental findings from paper PMC10397247 are described below.

What all share (assay): two-hybrid library CCNG1;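 also: natural log of median RNA to DNA barcode read ratio; higher means stronger binding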
One experiment deals with T1, P3SHb.
T1 chain: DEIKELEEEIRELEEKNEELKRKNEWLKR

The next experiment addresses T2, P2SHb.
T2 chain: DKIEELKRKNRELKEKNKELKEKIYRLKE

The target in a further experiment is T3, P7SHb.
T3 chain: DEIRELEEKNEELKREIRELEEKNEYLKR

The target of another experiment is T4, P4SHb.
T4 chain: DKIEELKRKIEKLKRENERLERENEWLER

Another experiment has as its target T5, P8SHb.
T5 chain: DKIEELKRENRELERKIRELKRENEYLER

The target in another experiment is T6, P1SHb.
T6 chain: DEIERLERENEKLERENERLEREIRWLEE

Another experiment concerns the target T7, P6SHb.
T7 chain: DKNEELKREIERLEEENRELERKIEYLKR

The target in another experiment is T8, P9SHb.
T8 chain: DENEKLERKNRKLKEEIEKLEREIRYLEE

The target in another experiment is T9, P5SHb.
T9 chain: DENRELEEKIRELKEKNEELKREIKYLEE

Another experiment concerns the target T10, 4H342-bH.
T10 chain: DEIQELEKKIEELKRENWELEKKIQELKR

Another experiment concerns the target T11, 4H496-bH.
T11 chain: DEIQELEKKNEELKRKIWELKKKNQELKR

The target in a further experiment is T12, 4H2691-bH.
T12 chain: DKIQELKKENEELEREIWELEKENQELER

The target in a further experiment is T13, 4H3070-bH.
T13 chain: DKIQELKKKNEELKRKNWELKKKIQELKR

For another experiment, the target named is T14, 4H3632-bH.
T14 chain: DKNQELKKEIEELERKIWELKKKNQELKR

For the next experiment, the target named is T15, 4H3112-bA.
T15 chain: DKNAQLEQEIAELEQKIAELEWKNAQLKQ

Another experiment has as its target T16, 4H4073-bA.
T16 chain: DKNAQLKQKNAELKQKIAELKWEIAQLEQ

The next experiment concerns the target T17, 4H968-bA.
T17 chain: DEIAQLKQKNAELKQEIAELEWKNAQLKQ

In another experiment the target is T18, 4H346-bA.
T18 chain: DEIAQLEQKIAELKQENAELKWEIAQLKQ

A further experiment deals with T19, 4H118-bA.
T19 chain: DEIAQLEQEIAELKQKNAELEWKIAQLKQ

The next experiment deals with T20, 4H2673-bA.
T20 chain: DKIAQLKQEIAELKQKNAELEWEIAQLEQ

The target in a further experiment is T21, 4H2702-bA.
T21 chain: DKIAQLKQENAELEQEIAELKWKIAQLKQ

In a further experiment the target is T22, 4H953-bA.
T22 chain: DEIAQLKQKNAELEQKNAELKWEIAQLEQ

In the next experiment the target is T23, 4H918-bA.
T23 chain: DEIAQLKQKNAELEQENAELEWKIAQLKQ

Another experiment concerns the target T24, 4H754-bA.
T24 chain: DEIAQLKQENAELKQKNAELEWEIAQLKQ

A further experiment deals with T25, 4H2627-bA.
T25 chain: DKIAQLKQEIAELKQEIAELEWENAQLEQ

The next experiment concerns the target T26, 4H3010-bA.
T26 chain: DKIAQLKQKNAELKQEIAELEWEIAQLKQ

Another experiment concerns the target T27, 4H780-bA.
T27 chain: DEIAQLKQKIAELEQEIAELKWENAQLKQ

The target in another experiment is T28, 4H3926-bA.
T28 chain: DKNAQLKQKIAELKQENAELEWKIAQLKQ

A further experiment addresses T29, O3-bP.
T29 chain: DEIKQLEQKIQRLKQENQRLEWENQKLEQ

In a further experiment the target is T30, 4H170-bA.
T30 chain: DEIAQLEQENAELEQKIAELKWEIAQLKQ

A further experiment addresses T31, 4H3427-bA.
T31 chain: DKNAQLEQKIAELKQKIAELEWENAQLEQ

In the next experiment the target is T32, 4H575-bA.
T32 chain: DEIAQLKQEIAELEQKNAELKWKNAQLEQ

The next experiment addresses T33, 4H2586-bA.
T33 chain: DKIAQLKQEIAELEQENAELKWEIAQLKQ

The next experiment addresses T34, 4H855-bA.
T34 chain: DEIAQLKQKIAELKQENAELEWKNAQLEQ

Another experiment has as its target T35, 4H1831-bA.
T35 chain: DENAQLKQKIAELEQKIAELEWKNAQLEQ

The target of another experiment is T36, 4H457-bA.
T36 chain: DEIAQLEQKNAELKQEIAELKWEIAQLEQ

For another experiment, the target named is T37, 4H683-bA.
T37 chain: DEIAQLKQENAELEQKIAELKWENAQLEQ

The target in a further experiment is T38, 4H797-bA.
T38 chain: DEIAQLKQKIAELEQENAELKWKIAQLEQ

Another experiment has as its target T39, P1A-bN.
T39 chain: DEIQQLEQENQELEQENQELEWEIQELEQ

A further experiment deals with T40, 4H953-bN.
T40 chain: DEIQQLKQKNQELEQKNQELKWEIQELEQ

A further experiment addresses T41, 4H968-bN.
T41 chain: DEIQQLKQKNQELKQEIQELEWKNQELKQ

The target in a further experiment is T42, 4H918-bN.
T42 chain: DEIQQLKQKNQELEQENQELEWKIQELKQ

Another experiment deals with T43, 4H855-bN.
T43 chain: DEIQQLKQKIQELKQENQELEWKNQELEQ

The next experiment concerns the target T44, 4H2619-bH.
T44 chain: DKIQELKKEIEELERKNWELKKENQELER

A further experiment has as its target T45, 4H363-bH.
T45 chain: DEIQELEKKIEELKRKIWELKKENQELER

In another experiment the target is T46, 4H3907-bH.
T46 chain: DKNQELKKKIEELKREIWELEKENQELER

The target of the next experiment is T47, 4H2717-bA.
T47 chain: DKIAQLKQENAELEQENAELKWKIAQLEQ

The target in another experiment is T48, 4H3961-bH.
T48 chain: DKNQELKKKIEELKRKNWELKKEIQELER

The target in the next experiment is T49, 4H2745-bH.
T49 chain: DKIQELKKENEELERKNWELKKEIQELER

For a further experiment, the target named is T50, 4H470-bH.
T50 chain: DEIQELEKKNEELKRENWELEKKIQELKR

For a further experiment, the target named is T51, 4H344-bH.
T51 chain: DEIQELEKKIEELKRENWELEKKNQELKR

B1: P1SHb (peptide)
chain: DEIERLERENEKLERENERLEREIRWLEE
Turning to B1, the interaction score was -1.76 with P3SHb; 1.75 with P2SHb; -0.298 with P7SHb; -0.498 with P4SHb; -0.756 with P8SHb; -1.02 with P1SHb. Further, the interaction score was -0.147 with P6SHb, -0.505 with P9SHb and -0.59 in the experiment with P5SHb.

B2: 4H2691-bH (peptide)
chain: DKIQELKKENEELEREIWELEKENQELER
Turning to B2, the interaction score with 4H342-bH is -1.06; with 4H496-bH it was 1.3; with 4H2691-bH, -0.0571; with 4H3070-bH, 0.576; with 4H3632-bH, -1.39.

B3: 4H118-bA (peptide)
chain: DEIAQLEQEIAELKQKNAELEWKIAQLKQ
Turning to B3, the interaction score in the experiment with 4H3112-bA was 0.131; with 4H4073-bA it was -0.156; in the experiment with 4H968-bA it was 0.0453; in the experiment with 4H346-bA it was -0.612; with 4H118-bA, 1.64; in the experiment with 4H2673-bA it was 1.32. Also, the interaction score with 4H2702-bA is 0.439; with 4H953-bA, -0.791; in the experiment with 4H918-bA, -0.49; with 4H754-bA it was -1.04; with 4H2627-bA it was 0.852; in the experiment with 4H3010-bA it was 2.66. Moreover, the interaction score in the experiment with 4H780-bA was 0.087; with 4H3926-bA, 1.96; with O3-bP, -1.86; in the experiment with 4H170-bA, -0.0431; with 4H3427-bA, 0.236; in the experiment with 4H575-bA, 0.369. In addition, the interaction score with 4H2586-bA was 0.381; with 4H855-bA it was 0.403; with 4H1831-bA it was -0.644; in the experiment with 4H457-bA, -0.384; with 4H683-bA, -0.721; with 4H797-bA, -1.22.

B4: 4H855-bN (peptide)
chain: DEIQQLKQKIQELKQENQELEWKNQELEQ
On to B4, for which the interaction score with P1A-bN is -0.584; in the experiment with 4H953-bN, -0.67; with 4H968-bN, -1.39; with 4H918-bN it was -0.862; with 4H855-bN, -0.495.

B5: 4H2619-bH (peptide)
chain: DKIQELKKEIEELERKNWELKKENQELER
For B5, the interaction score in the experiment with 4H2619-bH was 0.248; with 4H363-bH, 0.722; with 4H3907-bH it was 0.518; in the experiment with 4H2717-bA, -0.495; in the experiment with 4H342-bH, 1.45; with 4H496-bH, -0.548. Besides, the interaction score with 4H3961-bH is -0.9; with 4H2745-bH, 0.382; in the experiment with 4H470-bH it was 0.724; in the experiment with 4H344-bH it was 1.68; with 4H2691-bH it was 0.304; with 4H3070-bH, -0.416. Moreover, in the experiment with 4H3632-bH, the interaction score was -0.755.
